{"source": "the nanobody polyreactivity screen of Harvey et al. (2022)", "data": [{"experiment": "yeast display, Sf9 membrane polyspecificity reagent, FACS + sequencing; frameworks hold sequencing errors", "procedure,_shortened": "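Galactose induction of a Saccharomyces cerevisiae BJ5465 synthetic nanobody display library ran 36–48 hours. The cells were then stained for 1 hour at 4 °C with 10% biotinylated, detergent-solubilized Sf9 membrane reagent, pulled down on streptavidin microbeads and FACS-sorted into low and high (top ~1%) gates on expression and reagent-binding fluorescence. Labels for polyreactivity follow the gate of origin.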", "values": [{"sequence": "QVQLVESGGGLVQAGGSLRLSCAASGSTFSINAMGWYRQAPGIERELVAAISRSGGSTYYADSVKGRFTISRDNAKNTVYLQMNSLKPEDTAVYYCAADSRYDYEYWGQGTQVTVSS", "polyreactivity (PSR sort gate)": "high polyreactivity"}, {"sequence": "QVQLVESGGGLVQAGGSLRLSCAASGRTFQLNAMGWYRQGPGNERELVAAISTRGGSTYYADSVKGRFTISRDNAKNTVYLQMNSLKPEDTAVYYCAKDPSFTRGYKEGGGYDYWGQGTQVTVSS", "polyreactivity (PSR sort gate)": "high polyreactivity"}, {"sequence": "QVQLVESGGGLVQAGGSLRLSCAASGSTFYYNAMGWYRQAPGKERELVAAISKRGGTTSYADSVKGRFTISRDNAKNTVFLQMNSLKPEDTAVYYCAAQTYLRQFYRYDWGQGTQVTVSS", "polyreactivity (PSR sort gate)": "high polyreactivity"}, {"sequence": "QVQLVESGGGLVQAGGSLRLSCAASGSTFRGNAMGWYRQAPGKERELVASITGGGSTNYADSVKGRFTISRDNAKNTVYLQMNSLKPEDTAVYYCAADWGADFYWGQGTQVTVSS", "polyreactivity (PSR sort gate)": "low polyreactivity"}, {"sequence": "QVQLVESGGGLVQAGGSLRLSCAASGRTFYEYAMGWYRQAPGKERELVAAITIDGSTNYADSVKGRFTISRDNAKNTVYLQMNSLKPEDTAVYYCNARYLLYHGQHYRPYNYWGQGTQVTVSS", "polyreactivity (PSR sort gate)": "high polyreactivity"}, {"sequence": "QVQLVESGGGLVQAGGSLRLSCAASGSTFLYYAMGWYRQAPGKESELVARITTRVGRTYYADSVKGRFTISRDNAKNTVYLQMNSLKPEDTAVYYCNAPYLKSRFRAYYHWGQGTQVTVAS", "polyreactivity (PSR sort gate)": "high polyreactivity"}, {"sequence": "QVQLVESGGGLVQAGGSLRLSCAASGIIFYSNTMGWYRQAPGKERELVAGISRSGSSTYYADSVKGRFTISRDIAKNTVYLQMNSLKPEDTAVYYCADYRYGVTNAYGYWGQGTQVTVSS", "polyreactivity (PSR sort gate)": "high polyreactivity"}, {"sequence": "QDQLVESGGGLVQAGGSLRLSCAASGSTFWANAMGWYRQAPGKEWELDARITYSGGSTYYADSVKGRFTISRDYAKNTVYLQMNSLKPEDTAVYYCAAEHYLCYDYWGQGTQVTVSS", "polyreactivity (PSR sort gate)": "low polyreactivity"}, {"sequence": "QVQLVESGGGLVQAGGSLRLSCAASGRTFWYNAMGWYRPAPGKERELVAAIRGSGGSTYYADSVKGRFTISRDNAKNTVYLQLNSLKPEDTAVYYCAARGFYRRTYQYENNYWGQGTQVTVSS", "polyreactivity (PSR sort gate)": "high polyreactivity"}, {"sequence": "KVQLVESGGGLVQAGGSLRLSCAASGFTFYWYDMGWYRQAPGKERELVATISTGGGTNYADSVKGRFTISRDNAKNTVYLQMKSLKPEDTAVYYCAADGSAGYQWGYDFEGDYWGQGTQVTVSS", "polyreactivity (PSR sort gate)": "high polyreactivity"}, {"sequence": "QVQLVESGGGLVQAGGSLRLSCAASGSTFARYAMGWYRQAPRKERELVAAISRSGGSTNYADSVKGRFTISRDNAKNTVYLQMNSLKPEDTAVYYCAVRSGYYDKYVRGYDYWGQGTQVTVSS", "polyreactivity (PSR sort gate)": "high polyreactivity"}, {"sequence": "QVQLVESGGGLVQAVGSLRLSCAASGFIFYRNVMGWYREAPGKERELVAAISGSGGRTYYADSVKGRFTISRDNAKNTVYLQLNSLKPEDTAVYDCAADASLEGDYWGQGTQVTVSS", "polyreactivity (PSR sort gate)": "high polyreactivity"}, {"sequence": "QVQLVESGGGLVQAGGSLRLSCAASGSTFPRYAMGWYRQAPGKERELVASITSDGGSTYYADSVKGRFTISRDNAKNTVYLQMNSLKPEDTAFYYCNKVPYRGYRRYGYWGQGTQVTVSS", "polyreactivity (PSR sort gate)": "high polyreactivity"}, {"sequence": "QDQLVDSGGGLVQAGGSLRLSCAASGSTFYYYTMGWYRQAPGKEGELVAAITSGGSTYYADSVKGRFTISRDNAKNTVYLQLNSLKPEDTAVYYCAADLRRNGWGFDYWGQGTQVTVSS", "polyreactivity (PSR sort gate)": "high polyreactivity"}, {"sequence": "QVQLVESGGGLVQAGGSLRLSCAASGYTFNDYAMGWYRQARGKERELVASISSGGSTYYADSVKGRFTISRDNAKNTVYLQMNSLKPEDTAVYYCAAEWHYIYAYDYWGQGTQVTVSS", "polyreactivity (PSR sort gate)": "low polyreactivity"}, {"sequence": "QVQLVESGGGLVQAGGSLRLSCAASGSTFYGYAMGWYRQAPGKERELVAAISSSGTRTYYADSVKGRFTISRDNAKNTVYLQMNSLKPEDTAVYYCATDVRVGHIRDYDYWGQGTQVTVSS", "polyreactivity (PSR sort gate)": "high polyreactivity"}, {"sequence": "QVQLVESGGGLVQAGGSLRLSCAASGFIFSRYVMGWYRQAPGKERELVAVISYRGGSTYYADSVKGRFTISRDNAKNTVYVQMNSLKPEDTAVYYCNADTIPDGEDRYDYWGHGTQVTVSS", "polyreactivity (PSR sort gate)": "low polyreactivity"}, {"sequence": "QVQLVESGGGLGQAGGSLRLSCAASGSIFGKNAMGWYRQAPGKETELVAAITWSGGSTYYADSVKGRFTISRDNAKNTVYLQLNSLKPEDTAVYYCNAVRVRVTSHRFRQLDYGYWGQGTQVTVSS", "polyreactivity (PSR sort gate)": "low polyreactivity"}, {"sequence": "QVQLVESGGGLVQAGGSLRLSCAASGITLSLYAMGWYRQAPGKERELVAAISRGGGRTYYADSVKGRFTISRDNAKNTVYLQMNSLKPEDTAVYYCNAYRRSYRWYGDLGEYWGQGTQVTVSS", "polyreactivity (PSR sort gate)": "high polyreactivity"}, {"sequence": "QVQLVESGGGLVQAGGSLRLSCAASGIIILEYVMGSYRQAPGKERELVAAINSGGSTYYADSVKGRFTISRDNAKNTVYLQMNSLKPEDTAVYYCAADDYYKFDYWGQGTQVTVSS", "polyreactivity (PSR sort gate)": "low polyreactivity"}, {"sequence": "QDQHVESGGGLVQAGGSLRLSGAASGRTVGWYAMGWYRQAHGKVRELVAAITSSVDSTYYADSVKGRFTISRDNAKNTVYLLMNRLKPEDTAVYYCAADYDDGFYLYDYWGQGTQVTVSS", "polyreactivity (PSR sort gate)": "low polyreactivity"}, {"sequence": "QVQLVESGGGLVQAGASLRLSCAASGNTFIHNAMGRYRQAPGKERELVAAINWSGGRTYYADSVKGRFTISRDNAKNTVYLQMNCLKPEDTAVYYCARGTRWTYNMYYWGQGTQVTVSS", "polyreactivity (PSR sort gate)": "high polyreactivity"}, {"sequence": "QVQLVESGGGLVQAGGSLLLSCAASGFTFKYYAMGWYRQEPGKERELVAAINRSVGSTYYADSVKGRFTISRDNAKNTVYLQMNSLKPEDTAVYYCNARVRVPVTLHDYWGQGTQVTVSS", "polyreactivity (PSR sort gate)": "high polyreactivity"}, {"sequence": "QVQLVESGGGLVQAGGSLRLSCAASGSIFKINAMGWYRQAPGKERELVAAITRSGGSTYYADSVKGRFTISRDNAKNTVYLQMNSLKPEDTAVYYCNASTSRRTSLSSRFYYWGQGTQVTVSS", "polyreactivity (PSR sort gate)": "high polyreactivity"}, {"sequence": "QVQLVESVGGLVQAGGSLRLSCAASGRTFYFYAMGWYRQAPGKERELVAAITSGDTTHYADSVKGRFTISRDNAKNTVYLQMNSLKPDDTAVYYCAADKFKKISGYQRRSNYWGQGTQVTVSS", "polyreactivity (PSR sort gate)": "low polyreactivity"}, {"sequence": "QVQLVESGGGIVQAGGSLRLSCAASGSTLRWNAMGWYRQAPGKERELVAAIRWSTGSTYYADSVKGRFTISRDNAKNTVYLQMNSLKPEDTAVYYCAARQGRARTPNDHNYWGQGTKVTVSS", "polyreactivity (PSR sort gate)": "high polyreactivity"}, {"sequence": "QVQLVESGGGLVQAGGSLRLSCAASGSTFATYTMGWYRQAPGTERELVAAITGSVGSTYYADSVMGRFTISRDNAKNTVYVQMNSRKPQDTAVFYCAARGYRTRRGFTYQYRYEYWGQGTQVTVSS", "polyreactivity (PSR sort gate)": "high polyreactivity"}, {"sequence": "QVQVVESGGGLVQAGGSLRLSCAASGFIFYVYAMGWYTQAPGKERELVAAISKRSGGTRYADSVKGRFTISRDNAKNTVYLQMNSLKPEDTAVYYCNKYGQVPGYFSLDYWGQGTQVTVSS", "polyreactivity (PSR sort gate)": "high polyreactivity"}, {"sequence": "QVQLVESGGGLVQAGGSLRLSCAASGSIFIQYAMGWYRQAPGKERELVAAINTSGGRTYYADSVKGRFTISRDNAKNTVYLLMNSLKPEDTAVYYCNADHFGWPWRVRILEDDYWGQGTQVTVSS", "polyreactivity (PSR sort gate)": "low polyreactivity"}, {"sequence": "QVQLVESGGGLVQAGGSLRLSCAASGGTFYYNAMGWYRQAPGKERELVAAITDSGGRTYYADSVKGRFTISRDNAKNTVYLQMNSLKPEDTAVYYCAALARRQSRLYDYWGQGTQVTVSS", "polyreactivity (PSR sort gate)": "high polyreactivity"}, {"sequence": "QVQLVESGGGFVQAGASLRLSCAASGRTFYRYAMGWYRQAPGKERQLVAAINWRGGSTSYADSVKGRFTISRDNAKNTVYLQMNSLIPEDTAVYYCNAKFICWYEKGGCNVSKYEYWGQGTQVTVSS", "polyreactivity (PSR sort gate)": "low polyreactivity"}]}]}
